Data: publication doi:10.1101/2024.04.26.587986 (bioRxiv, 2024)

Target: the molecule itself
Assay: SEC

B1: β-galactosidase (GLB1), endogenous in mouse brain (enzyme, mouse (endogenous in mouse brain), UniProt P23780 30-647, looked up)
chain: QRTFKLDYSRDRFLKDGQPFRYISGSIHYFRIPRFYWEDRLLKMKMAGLNAIQMYVPWNFHEPQPGQYEFSGDRDVEHFIQLAHELGLLVILRPGPYICAEWDMGGLPAWLLEKQSIVLRSSDPDYLVAVDKWLAVLLPKMKPLLYQNGGPIITVQVENEYGSYFACDYDYLRFLVHRFRYHLGNDVILFTTDGASEKMLKCGTLQDLYATVDFGTGNNITQAFLVQRKFEPKGPLINSEFYTGWLDHWGKPHSTVKTKTLATSLYNLLARGANVNLYMFIGGTNFAYWNGANTPYEPQPTSYDYDAPLSEAGDLTKKYFALREVIQMFKEVPEGPIPPSTPKFAYGKVALRKFKTVAEALGILCPNGPVKSLYPLTFTQVKQYFGYVLYRTTLPQDCSNPKPIFSSPFNGVRDRAYVSVDGVPQGILDRNLMTALNIRGKAGATLDILVENMGRVNYGRFINDFKGLISNMTINSTVLTNWTVFPLNTEAMVRNHLWGREASDEGHLDGRSTSNSSDLILPTFYVGNFSIPSGIPDLPQDTFIQFPGWSKGQVWINGFNLGRYWPTMGPQKTLFVPRNILTTSAPNNITVLELEFAPCSEGTPELCTVEFVDTPVIS
In the case of B1, the “stoichiometry N” value is reported as 4.
